Experimental data: patent publication US10253082B2, “Long-acting insulin and use thereof” (HANMI PHARM. CO., LTD., priority 2014, dated 2019)

Target: Insulin receptors (Homo sapiens, UniProt P06213)
Assay: Insulin receptor binding affinity by surface plasmon resonance (BIACORE 3000)
Conditions: for ka / kd: SPR, immobilized insulin receptor, 1:1 Langmuir binding with baseline drift, Test 1-5 runs; for receptor binding affinity (KD) compared to human insulin: native human insulin of the same test = 100%
Experimental: Then, the insulin receptor binding affinity of each substance was examined. The binding affinity of each substance was calculated using BIAevaluation software. At this time, the model used was 1:1 Langmuir binding with baseline drift.

Substance	ka	kd	receptor binding affinity (KD) compared to human insulin
Insulin analog (No. 6): insulin analog, modified sequence B^24F->A; protein SEQ ID NO: 30	0.28 1/Ms, ×10^5	6.60 1/s, ×10^−3	(14.8%)
Insulin analog (No. 8): insulin analog, modified sequence A^14Y->E; protein SEQ ID NO: 34	1.78 1/Ms, ×10^5	12.9 1/s, ×10^−3	(57.1%)
Insulin analog (No. 7): insulin analog, modified sequence B^25F->A; protein SEQ ID NO: 32	0.14 1/Ms, ×10^5	8.34 1/s, ×10^−3	(9.9%)
Insulin analog (No. 9): insulin analog, modified sequence A^14Y->N; protein SEQ ID NO: 36	1.85 1/Ms, ×10^5	11.9 1/s, ×10^−3	(78.8%)
